Earlier results as cited in publication PMC10793677.

Experiments:
CD73 (Mus musculus) = CD73 (Mus musculus) (UniProt Q61503); assay: flow cytometry and SPR
CD73 (Homo sapiens) = CD73 (Homo sapiens) (UniProt P21589); assay: flow cytometry and SPR
Sequence of UniProt P21589 (P21589 27-549): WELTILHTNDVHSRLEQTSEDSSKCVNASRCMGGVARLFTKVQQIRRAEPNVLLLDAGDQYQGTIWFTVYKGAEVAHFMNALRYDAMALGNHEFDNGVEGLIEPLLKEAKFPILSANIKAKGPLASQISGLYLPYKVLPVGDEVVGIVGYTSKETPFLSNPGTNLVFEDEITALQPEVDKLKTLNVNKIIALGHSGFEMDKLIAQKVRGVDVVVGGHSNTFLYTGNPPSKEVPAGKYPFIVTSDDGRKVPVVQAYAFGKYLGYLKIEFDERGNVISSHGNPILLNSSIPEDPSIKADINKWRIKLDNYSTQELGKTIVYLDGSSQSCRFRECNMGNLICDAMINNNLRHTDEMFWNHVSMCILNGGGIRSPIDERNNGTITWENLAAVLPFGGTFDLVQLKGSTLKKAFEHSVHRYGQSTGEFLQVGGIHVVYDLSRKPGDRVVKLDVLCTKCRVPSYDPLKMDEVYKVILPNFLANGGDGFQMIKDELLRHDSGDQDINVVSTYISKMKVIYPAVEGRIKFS

Sequence of UniProt Q61503 (Q61503 29-551): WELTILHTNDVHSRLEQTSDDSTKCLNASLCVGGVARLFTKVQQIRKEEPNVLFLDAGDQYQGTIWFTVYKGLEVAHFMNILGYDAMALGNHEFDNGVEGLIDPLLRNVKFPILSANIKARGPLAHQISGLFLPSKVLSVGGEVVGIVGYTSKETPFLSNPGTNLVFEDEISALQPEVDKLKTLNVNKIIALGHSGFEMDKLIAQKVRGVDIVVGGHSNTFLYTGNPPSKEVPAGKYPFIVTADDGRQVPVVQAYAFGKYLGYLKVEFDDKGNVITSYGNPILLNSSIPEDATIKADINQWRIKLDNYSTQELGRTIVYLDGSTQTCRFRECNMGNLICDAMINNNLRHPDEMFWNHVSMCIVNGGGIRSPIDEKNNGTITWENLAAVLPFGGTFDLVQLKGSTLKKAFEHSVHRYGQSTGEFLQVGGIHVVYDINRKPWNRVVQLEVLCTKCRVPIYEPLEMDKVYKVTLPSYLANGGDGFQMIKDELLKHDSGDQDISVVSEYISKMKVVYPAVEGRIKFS

Substance: Oleclumab
- Kd (CD73 (Mus musculus)): 0.113 nM
- Kd (CD73 (Homo sapiens)): 0.154 nM
